Experimental data from publication PMC6255812.

Columns and labels:
[1] = target: full-length ACA8 (plasma-membrane Ca2+-ATPase ACA8) (UniProt Q9LF79)
[2] = target: fluorescein-labeled regulatory domain of ACA8 (ACA8RD, residues 1-130) (UniProt Q9LF79); assay: fluorescence polarisation; fluorescence anisotropy, displacement; CaM added to a preformed complex of ACA8core (POPC nanodiscs) and labelled ACA8RD; decrease in anisotropy
[3] = target: full-length ACA8 (plasma-membrane Ca2+-ATPase ACA8) (UniProt Q9LF79); assay: native MS; DDM-solubilised ACA8, apo and with CaM; 200 mM ammonium acetate pH 8.3, 0.018% DDM; nanoESI, spectra at 200 V collision energy

Sequence of full-length ACA8 (plasma-membrane Ca2+-ATPase ACA8) (Q9LF79 whole entry, the tested form may be a part): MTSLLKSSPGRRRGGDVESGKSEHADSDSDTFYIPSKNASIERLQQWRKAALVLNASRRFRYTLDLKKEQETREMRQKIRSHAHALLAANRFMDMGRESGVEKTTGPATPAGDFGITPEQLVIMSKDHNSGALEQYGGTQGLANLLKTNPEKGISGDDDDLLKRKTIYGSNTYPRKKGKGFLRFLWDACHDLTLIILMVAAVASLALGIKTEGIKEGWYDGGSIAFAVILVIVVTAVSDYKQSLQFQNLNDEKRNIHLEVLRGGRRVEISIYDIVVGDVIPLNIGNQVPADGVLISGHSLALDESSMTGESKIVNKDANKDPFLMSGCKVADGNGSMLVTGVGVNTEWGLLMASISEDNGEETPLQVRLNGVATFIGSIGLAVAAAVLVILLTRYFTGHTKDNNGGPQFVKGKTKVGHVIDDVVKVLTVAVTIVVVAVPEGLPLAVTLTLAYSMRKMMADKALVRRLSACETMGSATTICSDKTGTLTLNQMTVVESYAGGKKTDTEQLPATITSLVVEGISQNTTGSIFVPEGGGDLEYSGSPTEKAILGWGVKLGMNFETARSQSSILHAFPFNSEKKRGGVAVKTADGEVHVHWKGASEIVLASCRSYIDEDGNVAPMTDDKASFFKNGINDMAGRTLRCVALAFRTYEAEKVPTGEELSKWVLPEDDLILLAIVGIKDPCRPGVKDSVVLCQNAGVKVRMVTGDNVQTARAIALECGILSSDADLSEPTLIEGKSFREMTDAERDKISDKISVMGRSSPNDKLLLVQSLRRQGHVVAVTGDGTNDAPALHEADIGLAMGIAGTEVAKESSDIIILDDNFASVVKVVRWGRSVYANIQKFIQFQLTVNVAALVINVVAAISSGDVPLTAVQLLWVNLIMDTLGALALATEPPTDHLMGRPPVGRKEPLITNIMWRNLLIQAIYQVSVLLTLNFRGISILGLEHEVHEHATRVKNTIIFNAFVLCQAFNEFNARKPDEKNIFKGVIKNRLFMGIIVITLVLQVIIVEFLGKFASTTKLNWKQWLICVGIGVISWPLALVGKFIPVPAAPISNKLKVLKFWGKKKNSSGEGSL
Sequence of fluorescein-labeled regulatory domain of ACA8 (ACA8RD, residues 1-130) (Q9LF79 other isoform, or with tags, fused parts or gaps): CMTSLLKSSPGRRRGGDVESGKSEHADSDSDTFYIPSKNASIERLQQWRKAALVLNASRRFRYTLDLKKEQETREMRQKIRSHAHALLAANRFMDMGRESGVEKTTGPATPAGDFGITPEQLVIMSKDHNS

**Q.** How did the ATPase activity (Baginski assay) of detergent solubilized ACA8 with CaM against basal activity without CaM [1] turn out when “calmodulin CaM7 from A. thaliana (from UniProt P59220 1-149) (natural protein)” was run?
**A.** 2 fold

**Q.** And the K0.5 [2]?
**A.** 120 nM

**Q.** What about the stoichiometry N [3] of the same substance?
**A.** < 2
